Laboratory results: the supplement of paper PMC7125110
Fewer inactive variants are shown than the library holds.

B1: glmS ribozyme (parent)
chain: AUAAAAGCGCCAGAACUACAGAAAUGUAGUUGACGAGGAGGAGGUUUAUCGAAUUUUCGGCGGAUGCCUCCAAA

Assays:
Settings in all cases: with glucosamine-6-phosphate
glucosamine-6-phosphate [1] = variants of: B1; assay: self-cleavage kobs at 160 uM GlcN6P; higher = faster cleavage; RNA array
Outline: (§1)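 Tracking of barcoded ribozyme variants used a hybridised Cy3 probe at 37 °C, after in situ transcription by E. coli RNA polymerase on sequenced MiSeq chips. The flowed solution held 40 μM to 10 mM glucosamine-6-phosphate in HEPES/KCl/Mg(OAc)2 buffer, and imaging ran over ~14 h. kobs was taken from exponential decay fits of normalised per-tile medians, and kcat and KM from weighted Michaelis–Menten fits.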

glucosamine-6-phosphate [2] = variants of: B1; assay: self-cleavage kobs at 2500 uM GlcN6P; higher = faster cleavage; RNA array
Outline: as §1

glucosamine-6-phosphate [3] = variants of: B1; assay: self-cleavage kobs at 640 uM GlcN6P; higher = faster cleavage; RNA array
Outline: as §1

glucosamine-6-phosphate [4] = variants of: B1; assay: self-cleavage kobs at 10000 uM GlcN6P; higher = faster cleavage; RNA array
Outline: as §1

| Variant | self-cleavage kobs at 160 uM GlcN6P (glucosamine-6-phosphate [1]) [s⁻¹] | self-cleavage kobs at 2500 uM GlcN6P (glucosamine-6-phosphate [2]) [s⁻¹] | self-cleavage kobs at 640 uM GlcN6P (glucosamine-6-phosphate [3]) [s⁻¹] | self-cleavage kobs at 10000 uM GlcN6P (glucosamine-6-phosphate [4]) [s⁻¹] |
| --- | --- | --- | --- | --- |
| AUAAAAACGCCAGAACUACAGAAAUGUAGUUGACGAAGGUGAGGUUUAACGAAUUUUCAGCGGAUGCCUCCAAA [G7A G37A A39G G40U U49A G59A] | < 1e-05 | < 1e-05 | – | – |
| AUAAAAACGCCAGAACUACAGAAAUGUAGUUGACGAGGAGAAGGUUUAUCGAAUUUUCGGCGGAUGCCUGCAAA [G7A G41A C70G] | < 1e-05 | – | – | – |
| AUAAAAACGCCAGAACUACAGAAAUGUAGUUGACGAGGAAGAGGUUUAUCGAAUUUUCGGCGGAUGCCUCCAAA [G7A G40A] | < 1e-05 | – | < 1e-05 | – |
| AUAAAAACGCCAGAACUACAGAAAUGUAGUUGACGAGGAGGAGGUUUAUCGAAUUUACGGCGGAUGCCUCCAAA [G7A U57A] | < 1e-05 | < 1e-05 | < 1e-05 | < 1e-05 |
| AUAAAAACGCCAGAACUACAGAAAUGUAGUCGACGAGGAGGAGGUUUAUCGAAUUUUCGUCGGAUGCCUCCAAA [G7A U31C G60U] | < 1e-05 | < 1e-05 | – | – |
| AUAAAACCGCCAGAACUACAGAAAUGUAGUUGACGGGGCGGAGGUUUAUCGAAUUUUCGGCGGAUGCCUCCAAA [G7C A36G A39C] | < 1e-05 | – | < 1e-05 | – |
| AUAAAAACGCCAGAACUACAGAAAUGUAGUUGACGAGGAGGAGGUUUAACGAAUUUUCGGCGGAUGCCUCCAAA [G7A U49A] | < 1e-05 | < 1e-05 | < 1e-05 | < 1e-05 |
| AUAAAACCGCCAGGACUACAGAAAUGUAGUUGACGAGGAGGAGGUUUAUCGAAUUUUCGGUGGAUGCCUCCAAA [G7C A14G C61U] | < 1e-05 | – | – | – |
| AUAAAAACGCCAGAACUACAGAAAUGUAGUUGACGAGGAGGAGGUUUAUCGAAUUUUCUGCGGAUGCCUACAAA [G7A G59U C70A] | < 1e-05 | < 1e-05 | – | – |
| AUAAAAACGCCAGAACUACAGAAAUGUAGUUGACGACGAGGAGGUUUAUCGAAUUUUCGGCGGGUGCCUCCAAA [G7A G37C A64G] | < 1e-05 | – | – | – |
| AUAAAAACGCCAGAACUACAGAAAUGUAGUUUACGAGGAGGACGUUUAUCGAAUUUUCGGCGGAUGCCUCCAAA [G7A G32U G43C] | < 1e-05 | – | < 1e-05 | – |
| AUAAAACCGCCAGAACUACAGAAAUGUAGUUGACGAGGAGGAGGUUUCUUGAAUUUUCGGCGGAUGCCUCCAAA [G7C A48C C50U] | < 1e-05 | – | – | < 1e-05 |
| AUAAAAACGCCAGAACUACAGAAAUGUAGUUGACGAGGAGGAGGUUUAUCGAAUUUUAGGCGGAUGCCUCCAAA [G7A C58A] | < 1e-05 | < 1e-05 | < 1e-05 | – |
| AUAAAAACGCCAGAACUACAGAAAUGUAGUUGACGAGGAGGAGGUUUAUCGAAUUUUCGGCCGAUGGCUCCAAA [G7A G62C C67G] | < 1e-05 | < 1e-05 | < 1e-05 | – |
| AUAAAAACGCCAGAACUACAGAAAUGUAGCUGACGAGGAGGAGGUUUAUCGAAUUUUCGGAGGAUGUCUCCAAA [G7A U30C C61A C67U] | < 1e-05 | – | – | – |
| AUAAAAACGCCAGAACUACAGAAAUGUAGUUGACUAGGAGGAGGUUUAUCGAAUUUUCGGCGGAUGCCUCCAAA [G7A G35U] | < 1e-05 | – | < 1e-05 | < 1e-05 |
| AUAAAAACGACAGAAGUACAGAAAUGUAAUUGACGAGGAGGUGGUUUAUCUAAUUUUCGGUGGAUGCCUCCAAA [G7A C10A C16G G29A A42U G51U C61U] | < 1e-05 | < 1e-05 | – | < 1e-05 |
